Test results: article PMC3215855 (Developmental cell, 2011)
Values belong to the binder of their own block, whether it stands above or below them.

Target: T1, LRP6(3-4) (human, UniProt O75581 630-1246, N-linked carbohydrate at five predicted sites)
T1 sequence: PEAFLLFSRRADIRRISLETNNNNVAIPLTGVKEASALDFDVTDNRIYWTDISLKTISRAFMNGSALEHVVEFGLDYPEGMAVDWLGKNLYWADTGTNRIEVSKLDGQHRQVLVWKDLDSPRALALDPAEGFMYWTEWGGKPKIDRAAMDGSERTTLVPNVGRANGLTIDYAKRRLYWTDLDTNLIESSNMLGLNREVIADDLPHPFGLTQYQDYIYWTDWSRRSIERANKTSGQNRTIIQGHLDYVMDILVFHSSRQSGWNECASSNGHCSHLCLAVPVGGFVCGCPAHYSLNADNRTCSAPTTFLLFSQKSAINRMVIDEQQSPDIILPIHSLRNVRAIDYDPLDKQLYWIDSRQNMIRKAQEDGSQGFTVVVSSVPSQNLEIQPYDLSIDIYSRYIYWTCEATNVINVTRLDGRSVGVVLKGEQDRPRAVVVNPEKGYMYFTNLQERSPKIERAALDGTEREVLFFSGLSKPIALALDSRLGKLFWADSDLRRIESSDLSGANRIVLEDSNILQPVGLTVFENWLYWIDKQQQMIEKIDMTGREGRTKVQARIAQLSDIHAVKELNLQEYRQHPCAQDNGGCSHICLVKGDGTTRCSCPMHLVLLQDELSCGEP
Assay: ITC

- Kd: 67 nM
B1: full-length Dkk1 (ligand, human, UniProt O94907 32-266, looked up)
chain: TLNSVLNSNAIKNLPPPLGGAAGHPGSAVSAAPGILYPGGNKYQTIDNYQPYPCAEDEECGTDEYCASPTRGGDAGVQICLACRKRRKRCMRHAMCCPGNYCKNGICVSSDQNHFRGEIEETITESFGNDHSTLDGYSRRTTLSSKMYHTKGQEGSVCLRSSDCASGLCCARHFWSKICKPVLKEGQVCTKHRRKGSHGLEIFQRCYCGEGLSCRIQKDHHQASNSSRLHTCQRH
modifications: one N-linked carbohydrate site

- stoichiometry N: 1
B2: Dkk1_C (domain or fragment, human, UniProt O94907 178-266, looked up)
chain: MYHTKGQEGSVCLRSSDCASGLCCARHFWSKICKPVLKEGQVCTKHRRKGSHGLEIFQRCYCGEGLSCRIQKDHHQASNSSRLHTCQRH
